Article doi:10.1101/2022.05.06.490860 (bioRxiv, 2022)
Values belong to the molecule of their own block, whether it stands above or below them.

Columns and labels:
[1] = molecular target: YjoB-NTD (residues 1-159), oligomer form NTD-1 (B. subtilis 168) (UniProt O34703); assay: crystal structure
[2] = molecular target: KatA, dimer form (KatA-2) (B. subtilis) (UniProt P26901); assay: SEC
[3] = molecular target: T1, KatA, monomeric form (KatA-1) (B. subtilis, UniProt P26901 1-483); assay: SEC
T1 sequence (looked up): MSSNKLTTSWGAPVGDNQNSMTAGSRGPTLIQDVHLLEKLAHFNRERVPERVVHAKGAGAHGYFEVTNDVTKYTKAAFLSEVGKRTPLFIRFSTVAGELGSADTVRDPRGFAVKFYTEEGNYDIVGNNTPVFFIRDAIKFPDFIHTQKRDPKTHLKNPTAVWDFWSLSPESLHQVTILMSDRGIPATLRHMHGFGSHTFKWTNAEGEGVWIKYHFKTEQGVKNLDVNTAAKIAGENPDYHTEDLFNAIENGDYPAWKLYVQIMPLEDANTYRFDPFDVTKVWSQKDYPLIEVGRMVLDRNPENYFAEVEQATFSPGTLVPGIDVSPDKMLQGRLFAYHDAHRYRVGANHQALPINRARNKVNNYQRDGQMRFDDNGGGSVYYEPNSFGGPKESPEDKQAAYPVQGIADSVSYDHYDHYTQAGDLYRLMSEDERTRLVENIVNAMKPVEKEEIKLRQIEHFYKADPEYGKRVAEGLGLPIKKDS

crystal structure = molecular target: the molecule itself; assay: crystal structure
SEC = molecular target: the molecule itself; assay: SEC

Molecule: YjoB-NTD (residues 1-159), oligomer form NTD-1 (from UniProt O34703 1-159) (domain or fragment)
stoichiometry N [1]: 12

B2: YjoB-AAA domain (residues 159-423) (domain or fragment, B. subtilis 168, UniProt O34703 159-423, looked up)
chain: RKVTVFTDGDGGTSREQEAIVREVQRSQVIMNPLLKKEIYRSIDQFFHSDKSFYQTYDIPYKRGILLYGPPGNGKTTLVKSIAGSIDAPVAYWQITEFTSSETIEEVFQAARRLAPAVLVIEDIDSMPEDVRSFFLNTLDGATSKEGLFLIGTTNYPEEIDPGLMNRAGRFDRAYEIGLPDEELRLEYMKMRGFGIFLSEGEIKNAAKLTEGFSFAQLGELYVSSALQWHQEGNHHIETMVKDMTGEQRKSQRGSWMERNKVGFH
stoichiometry N (SEC): 6

More lines, main results first:

stoichiometry N [2]: 2
Molecule: KatA, dimer form (KatA-2) (from UniProt P26901 1-483) (enzyme)

binding result [3]: binds
B1: Bacillus subtilis YjoB (residues 1-423) (natural protein, B. subtilis 168, UniProt O34703 1-423, looked up)
chain: MTNIPFIYQYEEKENERAAAGYGTFGYLITRIEETLYDQYGVFYELYASDDPNTEYWELLVEDVRSGSLEPEHVAYIFEKLEKKTFAYDEDEKEPDYTVHKSIRNSVYAYPEKGVAFARIPYFQDGSIMSFDCLFAVNDEKMRAFLEGVRPRLWEKSKRKVTVFTDGDGGTSREQEAIVREVQRSQVIMNPLLKKEIYRSIDQFFHSDKSFYQTYDIPYKRGILLYGPPGNGKTTLVKSIAGSIDAPVAYWQITEFTSSETIEEVFQAARRLAPAVLVIEDIDSMPEDVRSFFLNTLDGATSKEGLFLIGTTNYPEEIDPGLMNRAGRFDRAYEIGLPDEELRLEYMKMRGFGIFLSEGEIKNAAKLTEGFSFAQLGELYVSSALQWHQEGNHHIETMVKDMTGEQRKSQRGSWMERNKVGFH
stoichiometry N (crystal structure): 6
